Laboratory results from patent publication US20170174776A1 (Hoffmann-La Roche, published 2017).

Experiments:
[1] = biological target: T1, extracellular domain of the mouse transferrin receptor (mouse, UniProt Q62351 89-763); experiment: ELISA, coated mouse TfR ECD, pH 5.5
T1 construct: extracellular domain; Bought, SinoBiological #50741-M07H; also called mouse TfR

[2] = biological target: T1, extracellular domain of the mouse …; experiment: ELISA, coated mouse TfR ECD, pH 7.4
[3] = biological target: T1, extracellular domain of the mouse …; experiment: ELISA, coated mouse TfR ECD, pH 5.5 against pH 7.4
[4] = biological target: T2, fusion protein of the human transferrin receptor extracellular domain linked to human IgG1 Fc (human, UniProt P02786 89-760); experiment: ELISA, coated human TfR ECD-Fc, pH 5.5
T2 construct: extracellular domain; Bought, R&D Systems #2474-TR-050; also called human TfR; not shown: human IgG1 Fc
T2 sequence (P02786 89-760): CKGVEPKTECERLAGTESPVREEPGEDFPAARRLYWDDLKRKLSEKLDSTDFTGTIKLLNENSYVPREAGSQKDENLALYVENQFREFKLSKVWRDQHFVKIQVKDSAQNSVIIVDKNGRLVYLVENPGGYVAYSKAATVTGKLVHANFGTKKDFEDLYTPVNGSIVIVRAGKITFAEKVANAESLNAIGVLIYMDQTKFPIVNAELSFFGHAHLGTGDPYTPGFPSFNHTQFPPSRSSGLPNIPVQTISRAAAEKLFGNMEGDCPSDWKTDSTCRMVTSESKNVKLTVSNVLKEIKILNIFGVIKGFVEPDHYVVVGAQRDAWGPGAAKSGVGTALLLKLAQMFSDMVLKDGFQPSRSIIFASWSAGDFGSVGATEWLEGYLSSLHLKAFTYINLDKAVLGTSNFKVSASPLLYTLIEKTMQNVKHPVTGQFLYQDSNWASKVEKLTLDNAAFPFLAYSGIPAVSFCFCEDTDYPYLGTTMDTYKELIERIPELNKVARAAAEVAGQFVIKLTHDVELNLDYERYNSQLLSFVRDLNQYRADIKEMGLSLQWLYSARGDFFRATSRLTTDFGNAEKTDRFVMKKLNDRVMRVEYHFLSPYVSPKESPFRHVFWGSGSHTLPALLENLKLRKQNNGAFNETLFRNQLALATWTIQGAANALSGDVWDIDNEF
Method: (§1) A fusion protein of the human transferrin receptor extracellular domain linked to human IgG1 Fc (R&D Systems, Wiesbaden, Germany, #2474-TR-050) or the extracellular domain of the mouse transferrin receptor (SinoBiological, Beijing, China, #50741-M07H) or of the human insulin receptor (R&D Systems, Wiesbaden, Germany, #1544-IR/CF) were coated to a 96-well plate by incubating 50 μl of a solution of 1 μg/ml in PBS for 1 h at RT. […] After four further washes with PBS/0.1% (w/v) TWEEN 20, bound antibodies were detected using HRP-coupled secondary antibodies (Dianova, Hamburg, Germany, #109-036-097 or GE Healthcare, Freiburg, Germany, #NA9310V)(30 min., RT) and 50 μl of TMB (10 min., RT) substrate. Color development was stopped by addition of 50 μl of 1 N hydrochloric acid (HCl) and absorbance measured at 450 nm in a plate reader.

[5] = biological target: T2, fusion protein of the human transferrin …; experiment: ELISA, coated human TfR ECD-Fc, pH 7.4
Method: as §1

[6] = biological target: T2, fusion protein of the human transferrin …; experiment: ELISA, coated human TfR ECD-Fc, pH 5.5 against pH 7.4
Method: as §1

T1 sequence (Q62351 89-763): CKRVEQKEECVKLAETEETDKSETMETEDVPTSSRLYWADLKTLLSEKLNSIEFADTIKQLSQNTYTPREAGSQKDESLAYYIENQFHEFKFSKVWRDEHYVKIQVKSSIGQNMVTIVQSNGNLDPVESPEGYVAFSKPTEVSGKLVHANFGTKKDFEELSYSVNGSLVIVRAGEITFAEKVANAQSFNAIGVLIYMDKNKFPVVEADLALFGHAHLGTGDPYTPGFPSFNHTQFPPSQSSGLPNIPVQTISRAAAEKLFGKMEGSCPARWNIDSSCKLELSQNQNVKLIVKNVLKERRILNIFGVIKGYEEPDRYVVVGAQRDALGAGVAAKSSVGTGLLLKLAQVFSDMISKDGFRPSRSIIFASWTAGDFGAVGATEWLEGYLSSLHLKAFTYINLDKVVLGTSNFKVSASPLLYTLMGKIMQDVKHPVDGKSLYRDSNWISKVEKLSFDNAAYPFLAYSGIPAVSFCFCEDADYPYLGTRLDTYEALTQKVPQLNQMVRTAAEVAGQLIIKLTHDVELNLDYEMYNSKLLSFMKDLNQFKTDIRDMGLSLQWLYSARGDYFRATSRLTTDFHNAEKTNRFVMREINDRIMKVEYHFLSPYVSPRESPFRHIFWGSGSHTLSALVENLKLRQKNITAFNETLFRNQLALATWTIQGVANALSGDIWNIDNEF

Row | EC50 [1] [µg/mL] | EC50 [2] [µg/mL] | ratio EC50 pH 5.5/EC50 pH 7.4 [3] | EC50 [4] [µg/mL] | EC50 [5] [µg/mL] | ratio EC50 pH 5.5/EC50 pH 7.4 [6] | Binder
1 | 0.0549 | 0.0511 | 1.1 |  |  |  | mAb 8D3 (rat anti-mouse transferrin-receptor antibody 8D3 variable regions with human IgG1 heavy and light chain constant regions) (antibody, V domains shown) VH: EVQLVESGGGLVQPGNSLTLSCVASGFTFSNYGMHWIRQAPKKGLEWIAMIYYDSSKMNYADTVKGRFTISRDNSKNTLYLEMNSLRSEDTAMYYCAVPTSHYVVDVWGQGVSVTVSS VL: DIQMTQSPASLSASLEEIVTITCQASQDIGNWLAWYQQKPGKSPQLLIYGATSLADGVPSRFSGSRSGTQFSLKISRVQVEDIGIYYCLQAYNTPWTFGGGTKLELK
2 |  |  |  | 0.0098 | 0.0078 | 1.3 | mAb 128.1 (mouse anti-human transferrin-receptor antibody 128.1 variable regions with human IgG1 heavy and light chain constant regions) (antibody, V domains shown) VH: EVQLQQSGPELVKPGASMKISCKASGYSFTGYTMNWVKQSHGENLEWIGRINPHNGGTDYNQKFKDKAPLTVDKSSNTAYMELLSLTSEDSAVYYCARGYYYYSLDYWGQGTSVTVSS VL: QIVLTQSPAIMSASPGEKVTMTCSASSSIDYIHWYQQKSGTSPKRWIYDTSKLASGVPARFSGSGSGTSYSLTISSMEPEDAATYYCHQRNSYPWTFGGGTRLEIR
